Assay: soluble on expression in E. coli; label from the status in PepcDB or PDB records

Sequence	soluble on expression in E. coli
MNFETVIGLEVHVELKTKSKIFSSSPNAFGAPPNTQTNVIDLGYPGVLPVLNRQAVEFAMKAAMALNCEIATETKFDRKNYFYPDNPKAYQISQYDQPLGKNGWIEIEVNGKKKKIGITRIHLEEDAGKLTHTGDGYSLVDFNRQGTPLIEIVSEPDIRSPEEAYAYLEKLKAIIQYTGVSDCKMEEGSLRCDANISLRPIGSDKFGTKTELKNLNSFNFVRMGLEYEAKRQEKILLSGGVIRQETRRFDEATKTTVLMRVKEGSEDYRYFPEPDLVMLYIDDEWKERVRASIPELPDARRKRYIEEWGLPEYDAKVLTLTKEMADFFEATVANGADPKLASNWLMVEVSGYLNAEQKELHDIALTPESLAGMIKLIQDGTISSKIAKKVFKELVEHGGDPERIVKEKGLVQISDEGALRKIVLEVLDANPQSVEDYKNGKDRALGFLVGQVMKATKGQANPPLVNKLLVEEIGKR	not soluble
MFNKKENSSPDVFDTLIGVNTFLEGNIETEGTVRIDGKIKGNVKVKGDVYIGKDANINGNISANNVYMSGRVDGNIEAKGVLRILSTAQLYGDILVQSLISDEGSIFEGNCKMVSASNAQNSDGSVSKNNKNVKDKDGDKSHTSA	not soluble
MAIKSVVVGKGTLTLAMKDAHTQALDFSAQVTSAKFQPDSSTGDSITVLSGETIPGKKSFGGHLEIDFLQDFSTNGIVDFSYKNAGKEADFVYTPNTEAKAKLQGTVIIAPLEVGDDVEAIAKSAAKWVVPSLPTFTPGG	not soluble
MGSDKIHHHHHHMKIGILTFANVPNFGANLQALSTISYLQNHGYNPILIKWEPEDFEARFTSIKTQKQPQEHFHFVEKYLPQTKICRNDDDICQVIKDEKIEGIIIGSDAVLQCSSFWGRLDFPTKTVVRVNKTTSEREYPNAFWGTFYDKLGSKIPMVIMSASSQNAKYRLIARSVKHKMSNNLSHFEYISVRDIWTRDMITYITKGAIIPNITPDPVFAFNYNCAKFIPSKEDILLKYHLPENYVLVSMKCRMLDNMLWMDKLKSEMKKLYLECVALPMPTGIEFKHNFDFSITTPLPPLDWYALIKYAKGYIGENMHPIVVALHNAVPCFCFDTYGVLKYARCVCVEESSKIYDIMSRFSLLDNRINAYSRFWKCPPVDIVINRILHFDVIACQKTALNYYNNYEQMMSSILEVFKSK	not soluble
MKVLKPGLLTTVQDIGRTGYQKYGVLASGAMDTVSLRIANLLIGNGENEAGLEITMMGPGPSFHFSKQTLIAVTGADFTLRINDEEAPLWKPVLIKENSTVSFGPCKLGSRAYLAAAGGIEVPAVMESKSTYVRGSIGGLHGRALQKEDELNIGEMSALSQTILSRLSSQLAHTVIGSTDVVSQPWEISVIEDESRHSSAGGISICLLHSRIKNAFSEEAFRVTPQSDRMGYRLKGEPLDLTAPLEMVSAAVSFGAAQMPPAGKPYYPCLQDRQDDWPAIRGIAHIISADLPIVSQIMPGEHVQFEPVSLQEAEALAVEREQHIKELKTRMKMEWLT	not soluble
DAYIGVLIDDLVTKGTNEPYRLLTSRAEYRLLLRHDNADLRLTDMGYELGMISEERYARFNEKRQQIDAEIKRLSDIRIKPNEHTQAIIEQHGGSRLKDGILAIDLLRRPEMTYDIILEILEEEHQLNADVEEQVEIQTKYEGYINKSLQQVEKVKRMEEKKIPEDLDYSKIDSLATEAREKLSEVKPLNIAQASRISGVNPADISILLIYLEQG	not soluble
LFTPDKQRITESVAFKDLSSPELEQYIGDTQAEKLRADIELIDGVYQPFDKEEYLAGQLAPVFFGSALNNFGVQELLNCFVEIAPSPQPVAAVERKVDPHEEEFTGFVFKIHANMDPNHRSCIAFVKICSGRFERNTNYKHIRLGKQFRFSSPTAFMAQRKETVDEAYAGDIIGLPDTGNFQIGDTLTAGEELHFRGLPSFSPELFKYIENQDPMKAKQLAKGIDQLMGEGVAQLFTNQFNGRKIIGTVGQLQFEVIQYRLLHEYGAQCRWEPISLYKACWIDSDKPEALEAFKKRKAQYMAKDIAGRDVYLADSGYVLNMAQQDFPDIRFHFTSEF	not soluble
MGCRATQRESVGFADKIRYTERRFISVFGVPLLIQLICQAPQRAQELEQIAARWQLQASDDSPFALVLSEERLELRKLDEPKLGAIYVDWVEGAVAHRRKFGGGKGQSIAKAAGLNKGVTPVVLDATAGLGRDAFVLASLGCRVQMVERHPVVAALLEDGLQRAKQDDEIGAWVSERISLLHASSHDALQQLASDPNFTSPDVVYLDPMYPHPENKKKTALVKKEMRVFQSLVGADNDADALLEPALQLAQKRVVVKRPDYAPWLGNRKPSMAMETKKNRFDVYVIAAMSGE	soluble
GYRALSFPDPLDSQPVQAIAFYPSTGSEHLSIIHGYRVEASEDAPIAMGRFPLLLLSHGNTGTPLALHDLATSLARQGFVVVAVVHPGDNDRDHSRLGSLSNLYGRPLQISEAISTALLDPVLAPYLNARQVGVIGYSAGGETALILAGAQPDLQRLRQYCLERPTDRDACKTQGELVADRDDLHAQADPRVGALMLMAPLSLMFGRHTLGDVHVPVLMYAGDDDQLLALDRNAEALARKLPQAPDYKLLAGAGHFVFMAPCSDEQREAAPLL	not soluble
MSLDVGGSERIPSEMRAWEVTSPAPIDSSPSPIHFVKHPVPVPKTSEVLVRVISCGICHTDLHVAEGDLPVHHPHVIPGHEIIGRVVANGPQAGRFNLGDRIGVPWLRWTCGVCTYCRSGKENLCPNSLYTGWDHDGGYAEYVTVPEGFAYRIPSAFNSVTAAPLLCAGIIGYHAFRRANVPAGGRLGLYGFGGSAHLAAQIAIAQGIEVHVFTRGKDAQRFALELGAASAQGVYDPSPVSLDSSILFAPVGDIVPKALENLAAGGTLALAGIHLTDVPSLNYQNHLFHEKVLTSVESNTRRDGEEFLTLADRLKIHPKTTEYPFEKADEALRHLSHGDMQGACVLRISEGHHHHHH	not soluble
MGSDKIHHHHHHADTASFLFDKYEDAQVLLRAGGELKSKMNYSIVVNKFYFIDPQDKQVKELANPGDILLIKIAGRTFYPESNGAGIEMLPTKPVVYVQYKATARKEAPMGAYGTRSETTAVQSYGTITSNGQSYKLEGEKIIVSNRHHVYWVEKDDKMKQFRNFKQLAKIYSKHRAEVEKYIEDNKVNFEDVDQIVKLCAYADSLK	not soluble
SSIRFYLAPNDADFTVYYTGTDGNWYETKATYKKVSVKKYEVTLPEITIGGAAEIEFKGVHRGPPNTVISAKFDVVGGTTQPEPEPDPAPEPQPAPEPEPGTSVNPAAPTAVDPATAPSCVEKGYINIPDTKGVDYFIGGELKHAGQHFYEGQKASVKVTAKPQNGYQFAAGAKTEWSFDFSGEVKDCSDSSEDPKPAAVEGRHFDAIGHEFAVEADPVDPTKPNAFTAKVTAESHMKYATVRIETDATFLDPQKYNLTLDQIEPGVTLQKRNVNIGNGFITMDVVPVKDGKPVDSAVVPKDAVFTFTNNLSENKNLKIALDVYGANKSTPKPPDIISPPDGAQWVHGRVPNPPMPKRCGLRIAVVADLSTSLKYADSNGFDESKKAANALIDSLAGTPAELGIYNFAGGAPRNPAGSTYGQNPPYISLQSDDGVSRAKSIVSNWNGNGSTNWEAGLKQVAAGNYDVVYFITDGMPTYSSKAPQLGLGGEFVQESALNQAIDAANELKAAGTRVVPIMVDLTVGGKNAQHTTVTQDLVLKNVRFWKRGTSNSEPGLYFQFTNKYVDAASYVGDDTTANFEIAYKNGGFKVWERTSRGRNIDVTRDQSKWTYGPREVKTMGEDISGTGDTIRVEQYSQLAAQMKKIGEELALRCNGVVKVKKRIVDENGRAIEDGVPGWEFTLSAGGQDIIDPGNGDRVRKSLKATSSANEDRGTASWNIMSEQEQQLTLVETQQPGFNLYKRNDKNAVCTETRDGVMKPIEVTNDGEFGFKVKMRAKDKKLSSVSCVVDNYKQPETPPGKLTFKKAQYNGDKIEEIPGLGGATFEIYPSKGDQPDYSAEALYTIKPGQESIEVKTTGTFFLVETKAPKGLNLLAQPVKFEISVDETTKKYKISVGSTSSGQVQAKGEGDKMILTVADTTAGELPKTGG	not soluble
MSLPRLDARLKLVAAEIRGKIHADIGSDHGHLLAALLSADRIERGIAVENKLQPYRNSSATLERLNAEVRLGEGMDVIEENEIDSLSICGMGGQSIVRILSEHPNRLPKQLVLQPNQAIASVRQWARDNGYWLTDEKCTGTKRRFEVLVFSRFGPPHDPVYQKLNEVGLDESMGLMFGPWFLLRKDERLLQRLAEEQRYLQSKQNLTQTSRARVETIRRLLSSDHFLSREGHHHHHH	soluble
MAHHHHHHMSEAALKREIALQEASDVVDNKSRVLPKSPADTRERTHEVVAATEPFEHPISLRSKVSAYVTLALLFLFARLRESYRQFFPNDESHVRPGYAPIVKDFDHYWNRRFYRRVRDCFMRPIDSRPSRVIGVMERVSKDNNQTFEYSGRIVPAVNMGSYNYLGFAEDTQSITHEVLDSIDDYGLASCSAPQGLGQSALVSRLEHEFAEFLGKEDAIVCGMGFATNFRGLPTLFGKETLVLSDSLNHSSLVNGVRSSGAKVKVFQHNHFGQVEKCLREGVVLGQDPCGEYKPYKRIVIIIEGIYSMEGEIVNLKKFVELKKKYKALLFVDEAHSIGAIGRTGRGVCEHTGVDPKDVDVLMGTFTKSFGSIGGYIAADKTLVRYLRQHSSIALHCDPLAPPCAQQVLSVLHVLLGKDGTDLGEKRIRQLKDNSSFFRRGLMDLGLVVLGDDSSPVVPVMCYSIGRLSALSRLCLERGVAIVIVGYPATPLLQGRVRFCVSACHTREDLQRTLDVIRELKGYVCMEDSTNPLR	not soluble
MGFSKKSQFEGGLESDGKKWVIAGISIRASLKPVKTKLRAPPEIVTEVEEDCYNEEEECSTTPTAKETKIPELLECPPAPRKRRPALKCRSNVVREFFTPPSDLETVFLRRR	not soluble
MGSDKIHHHHHHMLSKFWRPQAPQMIGVDIGSYEIKAILLGKTADGYKIQAHSCVPIKKGAVVDHDIRDSAAVIEALKQVKRGLPKSAKFAAVSVSGSAVMTKVIYMDSSLTEEEMEAQIEIEADNLIPYSLDEVSIDFETLKTNKTDPTKVDVLLSACRTENIDSRVDALDAIDIDAKVVDVEGYALGRSAELIMAQLPPGAEEKSVALVDIGANMTTFAVVERGETIFTREQAFGGELFTQAILSTYGMSYDEAENAKIKGELPRNYTFEVLSPFQTQLLQQVKRTLQIYATASGKEKVDYIVLCGGTAKLEGMEALLLNELGINTVVANPFLGCLHGDELIKSQLQPNVNKYMVACGLALRSYAQWRI	not soluble
MSVQDTKAVEFSMGHIRSSSVSLVAEATSNTNSEDKLSKVQLYEDLCRYEDTLSKLVESVDRFKPNLDIAKDLIRTDEALFENVKLLAEYDNIYRNLQKIDKDSEELDSKTRKILEILNECHDELKALPMLEQVEFEKNTILQQRSKINSTELLDYATKLSKFTKIPPTFDKGAVGPNNFIWPAEDALRRGMLAMASLHSKELTRIPGEEVEETEVPTVPPSQSEEQKGQMAKKEGTPKTDSFIFDGTAKEVGDEADNTKDKEKEENNDDALDLDLDLFDPDDF	soluble
MSLQPSQRVVLSHLVHGGWDEIAHSSLRPEIRGFKRTREVARSLLARRLPIYSAVFTGDCLFGNHPLLRPIGIHMQNVQAGNLLVSSTLVDGTVLNQAVCLMVHEDTEHAIGLMLNRPMQAMAGAITIQGTPQETPKIPRWNAEDLDETSEGDSTIDPSSDSIEHPVSGVPSVVISGDQKDQLAQQLLSGKLANGSSLHFGGPLSGPIVAVHSNRELAEAETGEGIFVAAQRENLEALMKSSDLPYRLIIGHLGWTAEQLENEIEEGIWHRIPATSDLLNSDDAMMWPRMIRRATANSVARWLDTTDVPGSAELNEGHHHHHH	soluble
MSTSTVETGYGGRIRVTVARNDRDITSEVRTFLCNKENANKIIGLDTERSVVGGDSEYPPESKLVILELSDGQNCLIIPLPYVQGNKLPVSLTNFLNLPDFTFTGVGINKALKMLKSECGLTCKNAVDIGPSSPIYEDWDNDSLTEDQINLAAANAYLAFKVGNLIREAMY	soluble

— the DeepSol protein solubility set
